These results are taken from paper doi:10.1101/2020.10.04.325654 (bioRxiv, 2020).

Assay [1] deals with T1, GST-SdhA-CBM2 (Legionella pneumophila, UniProt Q6RCQ3 1029-1260). Description: ELISA. Background: An ELISA detects its analyte on a solid surface through an enzyme-linked reagent.
Assay [2] deals with T1, GST-SdhA-CBM2. Kind of assay: pull-down.

B1: His-tagged ASH/RhoGAP domain of OCRL (536aa-901aa) (domain or fragment)
chain: not shown
Turning to B1, the binding result with GST-SdhA-CBM2 [1] is listed as “binds”.

B2: 6xHis-OCRL (enzyme)
chain: not shown
Consider B2, for which the binding result with GST-SdhA-CBM2 [2] is “binds”.
